Changes are numbered by the printed parent chain.
Experiments:
recombinant N2 NA = format: binding, influenza A virus
[1] = system: influenza A group 1 and group 2 NAs; test: Enzyme-linked lectin assay (ELLA) neuraminidase inhibition, influenza A NAs; format: biochemical, influenza A virus; conditions: for neuraminidase inhibition (NI) in ELLA: fetuin substrate, subtypes inhibited are named in the value
Protocol: Ninety six-well microtiter plates (Thermo Fisher) were coated with 100 μL/well fetuin (Sigma) at a concentration of 25 μg/mL in 1× coating buffer (KPL coating solution; SeraCare) at 4° C. overnight. The next day, the plates were washed three times with T-PBS and blocked in 200 μL blocking buffer (5% bovine serum albumin (BSA, Biomedicals) in PBS) at room temperature. On a separate 96-well plate virus was serially diluted 1:2 in PBS. Seventy-five μL of PBS was added to all wells and the plates incubated for 1.5 h on a shaker at room temperature. After blocking, the plates were washed three times with T-PBS, 100 μL of serially diluted virus was transferred well by well to the fetuin coated plates and the plates were incubated for 2 hours at 33° C. or 37° C. depending on the virus type. The plates were washed four times and 100 μL peanut agglutinin (PNA) conjugated to HRP at a concentration of 5 μg/mL was added to all wells. The plates were incubated in the dark for two hours, the plates washed four times and developed with 100 μL SigmaFast OPD. The reaction was stopped after 5 min with 50 μL 3M hydrochloric acid (Thermo Fisher) and the plates were read at a wavelength of 490 nm with a microtiter plate reader (Bio-Tek). The data were analyzed in Microsoft Excel and GraphPad Prism 7, and the 50% effective concentration (EC50) was calculated for each virus.
To perform neuraminidase inhibition assays, the microtiter plates were coated and blocked as described above. During the blocking of the fetuin coated plates the mAbs were diluted to a starting concentration of 30 μg/mL and serially diluted 1:2 in PBS in a separate 96-well plate. Seventy-five μL of virus diluted to 2× effective concentration 50 (EC50) was added to wells of the serially diluted mAbs and incubated for 1.5 h on a shaker. The fetuin coated plates were washed three times with T-PBS and the virus/mAb mixture was added to the plates and incubated for 2 hours at 33° C. or 37° C. The remainder of the assay was performed as described above. The data were analyzed in Microsoft Excel and GraphPad Prism 7, and the inhibitory concentration 50 (IC50) was calculated.

[2] = system: recombinant NA, group 1 NAs (N1, N4, N5 and N8) and group 2 NAs (N2, N3, N6, N7 and N9); format: binding, influenza A virus
[3] = system: challenge viruses expressing N1, N2, N3, N5, N6, N7, N8, N9 NAs and influenza B virus NA; design: species or system mice; conditions: mouse, in vivo
[4] = system: virus expressing a group 1 neuraminidase (N4); design: species or system mice; conditions: mouse, in vivo

B1: 1G04: human anti-NA monoclonal antibody expressed as IgG1; heavy chain variable region SEQ ID NO: 40, light chain variable region SEQ ID NO: 41 (antibody, listed as Homo sapiens, V domains shown)
VH: EVQLVESGGRVVRPGGSLRLSCAASGFTFDDYGMSWVRQAPGKGLEFVSGLNWNGDITAFTDSVKGRFTISRDNAKSSLYLQMNSLRADDTAFYYCARVRTWGEYTTREEPIHSWYFDLWGRGTLVTVSS
VL: DIQLTQSPSFLSASVGDRVTITCRASQDISSFLAWYQQKPGNAPKVLIYAASLLQSGVPSRFSGSGSGTDFTLTISSLQPEDFATYYCQQLNSYPLFTFGPGTKVDIK
modifications: IgG1 constant regions
- binding to N2 NA (recombinant N2 NA): bound
- neuraminidase inhibition (NI) in ELLA [1]: inhibited N2, N3 and certain N1 NAs
- binding / cross-reactivity to recombinant influenza A NA subtypes in ELISA [2]: some cross-reactivity to N3 and N6 (group 2), and N1, N5 and N8 (group 1)

B2: 1E01: human anti-NA monoclonal antibody expressed as IgG1; heavy chain variable region SEQ ID NO: 42, light chain variable region SEQ ID NO: 43 (antibody, listed as Homo sapiens, V domains shown)
VH: B1 VH with A40P, A75V, E104D, R108G, P111I, H113N
VL: B1 VL with F32Y, V46L, G64A, S65F, D70E, Q90H, N92K
modifications: IgG1 constant regions
- binding to N2 NA (recombinant N2 NA): bound
- neuraminidase inhibition (NI) in ELLA [1]: inhibited group 2 NAs, N1
- binding / cross-reactivity to recombinant influenza A NA subtypes in ELISA [2]: even broader binding pattern that included group 2 NAs N3, N6, N7 and N9, group 1 NAs N1, N5 and N8

B3: 1G01: human anti-NA monoclonal antibody expressed as IgG1; heavy chain variable region SEQ ID NO: 44, light chain variable region SEQ ID NO: 45 (antibody, listed as Homo sapiens, V domains shown)
VH: EVQLVESGGRALRPGGSLRLSCAASGFKFDDYAMSWVRQVPGKGLEFVSGLNWNGDITAYTDSVKGRFTVSRDNAKNSLYLHINSPKPEDTALYYCARTSSWGDYTRGPEPKITWYFDLWGRGTLVTVSS
VL: DIQLTQSPSFLSASVGDRITITCRASQGIDGYLAWYQQRPGKAPNLLIYAASLLQSGVPSRFSGSGYGTEFTLTISSLQPEDFATYYCQHLDSYPLFTFGPGTKVDIK
modifications: IgG1 constant regions
- binding to N2 NA (recombinant N2 NA): bound
- neuraminidase inhibition (NI) in ELLA [1]: inhibited the activity of all A/group 2 and group 1 NAs
- protection against weight loss [3]: solid protection against weight loss
- protection from lethality [3]: full protection from lethality
- weight loss [4]: some transient weight loss
- binding / cross-reactivity to recombinant influenza A NA subtypes in ELISA [2]: broadest binding activity that covered all group 1 NAs (N1, N4, N5 and N8) and group 2 NAs (N2, N3, N6, N7 and N9)

B4: 1G01 Fab: antigen-binding fragment (Fab) of 1G01 used instead of the full antibody (antibody)
heavy: B3 VH
light: B3 VL
modifications: left off: a dimerising Fc or GST
- NA inhibition in ELLA ([1]; H3N2 strain A/Hong Kong/4801/2014): potent inhibition
